The text below walks through data of patent US20120122783A1 (INDIANA UNIVERSITY RESEARCH AND TECHOLOGY, published 2012).

Common to all, as to assay: cell-based or functional assay
In assay [1] the target is T1, human glucagon receptor (human, UniProt P47871 26-477).
The target of assay [2] is T1, human glucagon receptor. This is another data set of the same source.
Assay [3] concerns the target T1, human glucagon receptor. This is another data set of the same source.
Assay [4] addresses T1, human glucagon receptor. The source holds these as a separate data set.
Assay [5] addresses T1, human glucagon receptor. This is another data set of the same source.
In assay [6] the target is T1, human glucagon receptor. This is another data set of the same source.

Where “and” joins values, the source holds several entries; their conditions need not be identical. Identical values can stand only once. Like-named read-outs stand apart in the source and are kept apart here. Square brackets hold non-standard residues; d marks the D form. Primed or numbered codes have the meaning given here. Ends that are not written are not given here. mPEG‑MAL 20 kDa = maleimido methoxyPEG of about 20 kDa, linked to the Cys sulfur; mPEG‑MAL 5 kDa = maleimido methoxyPEG of about 5 kDa, linked to the Cys sulfur; Abu(4-SO3H) = N[C@@H](CCS(=O)(=O)O)C(=O)O; PhLac = O=C(O)[C@@H](O)Cc1ccccc1; Aad = N[C@@H](CCCC(=O)O)C(=O)O; CH2CH2COOH′ = not defined here

T1 sequence (P47871 26-477): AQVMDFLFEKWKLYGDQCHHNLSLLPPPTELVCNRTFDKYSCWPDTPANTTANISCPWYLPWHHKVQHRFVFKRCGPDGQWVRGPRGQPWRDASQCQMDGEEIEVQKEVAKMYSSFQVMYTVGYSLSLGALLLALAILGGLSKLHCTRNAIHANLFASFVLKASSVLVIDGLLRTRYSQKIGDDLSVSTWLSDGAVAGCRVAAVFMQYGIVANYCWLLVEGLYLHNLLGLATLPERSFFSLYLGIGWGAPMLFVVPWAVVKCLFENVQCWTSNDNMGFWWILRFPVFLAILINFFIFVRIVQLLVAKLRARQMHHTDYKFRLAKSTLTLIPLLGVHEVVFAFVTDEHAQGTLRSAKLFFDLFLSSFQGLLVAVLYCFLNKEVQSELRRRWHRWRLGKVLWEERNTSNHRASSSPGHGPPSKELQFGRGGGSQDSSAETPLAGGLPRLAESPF

“[d-Cys5(20kDaPEG), E9]Glucagon(aa5-29) -NH2 (peptide)” yielded an IC50 (nM) (cAMP, inhibit 0.2 mM Glucagon) with human glucagon receptor [1] of 14800 nM.
Consider “Oxyntomodulin C24 (from UniProt P01275 53-89) (peptide)”, for which the cAMP Induction EC50 with human glucagon receptor [1] amounted to 2.54 nM.
The same measure, in the same setting: the same measure for “Oxyntomodulin (from UniProt P01275 53-89) (peptide)”: 3.25 nM; for “Oxyntomodulin C24 PEG 20 K (from UniProt P01275 53-89) (peptide)”: 0.97 nM.

B1: [hGlu^9]Glucagon(aa6-29)-NH2 (peptide)
peptide: FTS[Aad]YSKYLDSRRAQDFVQWLMNT-NH2
modifications: N-terminus assumed
SMILES: CSCC[C@H](NC(=O)[C@H](CC(C)C)NC(=O)[C@H](Cc1c[nH]c2ccccc12)NC(=O)[C@H](CCC(N)=O)NC(=O)[C@@H](NC(=O)[C@H](Cc1ccccc1)NC(=O)[C@H](CC(=O)O)NC(=O)[C@H](CCC(N)=O)NC(=O)[C@H](C)NC(=O)[C@H](CCCNC(=N)N)NC(=O)[C@H](CCCNC(=N)N)NC(=O)[C@H](CO)NC(=O)[C@H](CC(=O)O)NC(=O)[C@H](CC(C)C)NC(=O)[C@H](Cc1ccc(O)cc1)NC(=O)[C@H](CCCCN)NC(=O)[C@H](CO)NC(=O)[C@H](Cc1ccc(O)cc1)NC(=O)[C@H](CCCC(=O)O)NC(=O)[C@H](CO)NC(=O)[C@@H](NC(=O)[C@@H](N)Cc1ccccc1)[C@@H](C)O)C(C)C)C(=O)N[C@@H](CC(N)=O)C(=O)N[C@H](C(N)=O)[C@@H](C)O
In the case of B1, the “cAMP IC50” value with human glucagon receptor [2] was found to be 472 nM. Further, the “cAMP (I/A)50, inhibition index” value with human glucagon receptor [3] was 2360 ratio.
Regarding C(5 kDa PEG)FTSEYSKYLDSRRAQDFVQWLMNT-NH2 [[C5(5kDaPEG), E9]Glucagon(aa5-29) -NH2], the “IC50 (nM) (cAMP, inhibit 0.2 mM Glucagon)” value in the assay with human glucagon receptor [4] is 1610 nM.
Regarding FTSDYSKYLDSRRAQDFVQWLMNT-NH2 [Glucagon(aa6-29)-NH2], in the assay with human glucagon receptor [2], the “cAMP IC50” value amounted to 346 nM. Further, in the assay with human glucagon receptor [3], the “cAMP (I/A)50, inhibition index” value was determined as 1730 ratio.
Regarding FTSC(CH2CH2COOH′)YSKYLDSRRAQDFVQWLMNT-NH2 [[(CSA-2)^9]Glucagon(aa6-29)-NH2], the “cAMP IC50” value with human glucagon receptor [2] is 116 nM. Also, the “cAMP (I/A)50, inhibition index” value with human glucagon receptor [3] is 580 ratio.
On to FTSC(CH2COOH)YSKYLDSRRAQDFVQWLMNT-NH2 [[(CSA-1)^9]Glucagon(aa6-29)-NH2], for which the “cAMP IC50” value with human glucagon receptor [2] amounted to 101 nM. Also, the “cAMP (I/A)50, inhibition index” value in the assay with human glucagon receptor [3] is 506 ratio.
On the same counts, the results for FTSKYSKYLDSRRAQDFVQWLMNT-NH2 [[Lys^9]Glucagon(aa6-29)-NH2] are 398 nM and 1990 ratio.
C(1.2 kDa PEG)FTSEYSKYLDSRRAQDFVQWLMNT-NH2 [[C5(1.2kDaPEG), E9]Glucagon(aa5-29) -NH2]: in the assay with human glucagon receptor [4], the “IC50 (nM) (cAMP, inhibit 0.2 mM Glucagon)” value was 2280 nM.

B2: [desHis^1, hCys^9(SO3-), Phe^25, Leu^27] Glucagon-NH2 (peptide)
peptide: SQGTFTS[Abu(4-SO3H)]YSKYLDSRRAQDFVQFLLNT-NH2
modifications: N-terminus assumed
SMILES: CC(C)C[C@H](NC(=O)[C@H](Cc1ccc(O)cc1)NC(=O)[C@H](CCCCN)NC(=O)[C@H](CO)NC(=O)[C@H](Cc1ccc(O)cc1)NC(=O)[C@H](CCS(=O)(=O)O)NC(=O)[C@H](CO)NC(=O)[C@@H](NC(=O)[C@H](Cc1ccccc1)NC(=O)[C@@H](NC(=O)CNC(=O)[C@H](CCC(N)=O)NC(=O)[C@@H](N)CO)[C@@H](C)O)[C@@H](C)O)C(=O)N[C@@H](CC(=O)O)C(=O)N[C@@H](CO)C(=O)N[C@@H](CCCNC(=N)N)C(=O)N[C@@H](CCCNC(=N)N)C(=O)N[C@@H](C)C(=O)N[C@@H](CCC(N)=O)C(=O)N[C@@H](CC(=O)O)C(=O)N[C@@H](Cc1ccccc1)C(=O)N[C@H](C(=O)N[C@@H](CCC(N)=O)C(=O)N[C@@H](Cc1ccccc1)C(=O)N[C@@H](CC(C)C)C(=O)N[C@@H](CC(C)C)C(=O)N[C@@H](CC(N)=O)C(=O)N[C@H](C(N)=O)[C@@H](C)O)C(C)C
Turning to B2, the “cAMP Induction EC50” value with human glucagon receptor [5] turned out to be 430 nM.
Consider [PhLac]TC(mPEG‑MAL 20 kDa)EYSKYLDSRRAQDFVQWLMNT-NH2 [[PLA6, C8(20kDaPEG), E9]Glucagon(aa6-29)-NH2], for which the “IC50 (nM) (cAMP, inhibit 0.2 mM Glucagon)” value with human glucagon receptor [4] was 236 nM and 92 nM.
Same read-out and setting: the value for [PhLac]TSEYSKYLDSRRAQDFVC(m‑dPEG24‑MAL)WLMNT-NH2 [[PLA6, E9 ,C24(1.2 kDaPEG)]Glucagon(aa6-29) -NH2] was 18 nM.

B3: [PLA6, D9]Glucagon(aa6-29)-COOH (peptide)
peptide: [PhLac]TSDYSKYLDSRRAQDFVQWLMNT-OH
modifications: N-terminus assumed
SMILES: CSCC[C@H](NC(=O)[C@H](CC(C)C)NC(=O)[C@H](Cc1c[nH]c2ccccc12)NC(=O)[C@H](CCC(N)=O)NC(=O)[C@@H](NC(=O)[C@H](Cc1ccccc1)NC(=O)[C@H](CC(=O)O)NC(=O)[C@H](CCC(N)=O)NC(=O)[C@H](C)NC(=O)[C@H](CCCNC(=N)N)NC(=O)[C@H](CCCNC(=N)N)NC(=O)[C@H](CO)NC(=O)[C@H](CC(=O)O)NC(=O)[C@H](CC(C)C)NC(=O)[C@H](Cc1ccc(O)cc1)NC(=O)[C@H](CCCCN)NC(=O)[C@H](CO)NC(=O)[C@H](Cc1ccc(O)cc1)NC(=O)[C@H](CC(=O)O)NC(=O)[C@H](CO)NC(=O)[C@@H](NC(=O)[C@@H](O)Cc1ccccc1)[C@@H](C)O)C(C)C)C(=O)N[C@@H](CC(N)=O)C(=O)N[C@H](C(=O)O)[C@@H](C)O
In the case of B3, the “IC50 (nM) (cAMP, inhibit Glucagon) 0.1 nM or 0.2 nM” value with human glucagon receptor [6] stood at 13.2 nM.
Consider [PhLac]TSEYSKYLDSRRAQDFVC(mPEG‑MAL 20 kDa)WLMNT-NH2 [[PLA6, E9, C24(20kDaPEG)]Glucagon(aa6-29)-NH2], for which the “IC50 (nM) (cAMP, inhibit 0.2 mM Glucagon)” value with human glucagon receptor [4] is 126 nM.
On the same count and under the same terms, the same measure for [PhLac]TSEYC(mPEG‑MAL 20 kDa)KYLDSRRAQDFVQWLMNT-NH2 [[PLA6, E9, C11(20kDaPEG)]Glucagon(aa6-29)-NH2]: 664 nM.
For SQGTFTSEYSKYLDSRRAQDFVQFLLNT-NH2 [[desHis^1, Glu^9, Phe^25, Leu^27]Glucagon-NH2], in the assay with human glucagon receptor [5], the “cAMP Induction EC50” value is 81 nM.
For the molecule SQLTFTSEYSKYLDSRRAQDFVQWLMNT-NH2 [[desHis^1, Leu^4, Glu^9] Glucagon-NH2], in the assay with human glucagon receptor [5], the “cAMP Induction EC50” value is 318 nM and the “cAMP Inhibition IC50” value was 102 nM.

B4: [desHis^1, desPhe^6, hCys^9(SO3-), Phe^25, Leu^27] Glucagon-NH2 (peptide)
peptide: SQGTTS[Abu(4-SO3H)]YSKYLDSRRAQDFVQFLLNT-NH2
modifications: N-terminus assumed
SMILES: CC(C)C[C@H](NC(=O)[C@H](Cc1ccc(O)cc1)NC(=O)[C@H](CCCCN)NC(=O)[C@H](CO)NC(=O)[C@H](Cc1ccc(O)cc1)NC(=O)[C@H](CCS(=O)(=O)O)NC(=O)[C@H](CO)NC(=O)[C@@H](NC(=O)[C@@H](NC(=O)CNC(=O)[C@H](CCC(N)=O)NC(=O)[C@@H](N)CO)[C@@H](C)O)[C@@H](C)O)C(=O)N[C@@H](CC(=O)O)C(=O)N[C@@H](CO)C(=O)N[C@@H](CCCNC(=N)N)C(=O)N[C@@H](CCCNC(=N)N)C(=O)N[C@@H](C)C(=O)N[C@@H](CCC(N)=O)C(=O)N[C@@H](CC(=O)O)C(=O)N[C@@H](Cc1ccccc1)C(=O)N[C@H](C(=O)N[C@@H](CCC(N)=O)C(=O)N[C@@H](Cc1ccccc1)C(=O)N[C@@H](CC(C)C)C(=O)N[C@@H](CC(C)C)C(=O)N[C@@H](CC(N)=O)C(=O)N[C@H](C(N)=O)[C@@H](C)O)C(C)C
Turning to B4, in the assay with human glucagon receptor [5], the “cAMP Induction EC50” value came to 3210 nM and the “cAMP Inhibition IC50” value was found to be 9220 nM.
As for C(3.4 kDa PEG)FTSEYSKYLDSRRAQDFVQWLMNT-NH2 (also: dimer: the two Cys5 joined by 3.4 kDa PEG) [3.4kDaPEG-dimer[C5, E9]Glucagon(aa5-29) -NH2], the “IC50 (nM) (cAMP, inhibit 0.2 mM Glucagon)” value with human glucagon receptor [4] stood at 1340 nM.
For [PhLac]TC(mPEG‑MAL 5 kDa)EYSKYLDSRRAQDFVQWLMNT-NH2 [[PLA6, C8(5kDaPEG), E9]Glucagon(aa6-29) -NH2], in the assay with human glucagon receptor [4], the “IC50 (nM) (cAMP, inhibit 0.2 mM Glucagon)” value stood at 216 nM.

B5: [desHis^1, Leu^4, hCys^9(SO3-), Phe^25, Leu^27] Glucagon-NH2 (peptide)
peptide: SQLTFTS[Abu(4-SO3H)]YSKYLDSRRAQDFVQFLLNT-NH2
modifications: N-terminus assumed
SMILES: CC(C)C[C@H](NC(=O)[C@H](Cc1ccc(O)cc1)NC(=O)[C@H](CCCCN)NC(=O)[C@H](CO)NC(=O)[C@H](Cc1ccc(O)cc1)NC(=O)[C@H](CCS(=O)(=O)O)NC(=O)[C@H](CO)NC(=O)[C@@H](NC(=O)[C@H](Cc1ccccc1)NC(=O)[C@@H](NC(=O)[C@H](CC(C)C)NC(=O)[C@H](CCC(N)=O)NC(=O)[C@@H](N)CO)[C@@H](C)O)[C@@H](C)O)C(=O)N[C@@H](CC(=O)O)C(=O)N[C@@H](CO)C(=O)N[C@@H](CCCNC(=N)N)C(=O)N[C@@H](CCCNC(=N)N)C(=O)N[C@@H](C)C(=O)N[C@@H](CCC(N)=O)C(=O)N[C@@H](CC(=O)O)C(=O)N[C@@H](Cc1ccccc1)C(=O)N[C@H](C(=O)N[C@@H](CCC(N)=O)C(=O)N[C@@H](Cc1ccccc1)C(=O)N[C@@H](CC(C)C)C(=O)N[C@@H](CC(C)C)C(=O)N[C@@H](CC(N)=O)C(=O)N[C@H](C(N)=O)[C@@H](C)O)C(C)C
As to B5, in the assay with human glucagon receptor [5], the “cAMP Induction EC50” value was found to be 1610 nM and the “cAMP Inhibition IC50” value turned out to be 4460 nM.
C(20 kDa PEG)FTSEYSKYLDSRRAQDFVQWLMNT-NH2 [[C5(20kDaPEG), E9]Glucagon(aa5-29) -NH2]: in the assay with human glucagon receptor [4], the “IC50 (nM) (cAMP, inhibit 0.2 mM Glucagon)” value is 976 nM.
